In US20210130485A1:

Biological target: FcγRs
Test: cell-based or functional assay

cis-LALA modified Fc polypeptide dimer fused to an anti-BACE1 Fab (bispecific antibody)
pSyk levels in primary human microglial cells on polypeptide-coated plates (pSyk sandwich immunoassay): 3 fold
